Columns and labels:
HT-1080 cells = test: Gene expression by Oligo GEARRAY Human Apoptosis Microarray; assay type: cell-based
Procedure: To study the gene expression profiles of proteins involved in apoptosis, approximately 2×10^7 cells were grown to confluence and treated with either recombinant R24K KD1 or vehicle for 24 hours and 48 hours. After the treatment, the cells were harvested and total RNA was purified using the RNEASY RNA extraction kit according to the manufacturer's instruction. The purified RNA samples were further digested using an on-column DNase digestion with RNase-free DNase-I to ensure complete removal of any contaminating genomic or mitochondrial DNA. The pathway-specific microarray was carried out using 3 μg of total RNA to generate biotin-labeled cRNA using TRUELABELING-AMP from SABiosciences Corp. (Frederick, Md.). TRUELABELING-AMP 2.0 from (SABiosciences Corp., Frederick, Md.) was used to rapidly amplify and label antisense RNA for hybridization. Three micrograms of labeled cRNA was used for hybridization with an Oligo GEARRAY Human Apoptosis Microarray consisting of 112 genes. Following incubation with CDP-STAR, the chemiluminescent array image was captured by a cooled CCD camera (Alpha Innotech Corp., San Leandro, Calif.). All images were saved as electronic files in a grayscale, 8 or 16 bit TIFF file format and analyzed using a GEARRAY Expression Analysis Suite. Data were normalized using minimum value background subtraction and interquartile normalization. Minimum value is the lowest density spot on the array and the average across the spot was used as the background correction value and is subtracted from the intensity value for each spot on the array. Interquartile uses only genes between the 25% and 75% quartile and the average intensity value of these spots is used for normalization of all the genes (intensity value of each gene is divided by this mean intensity value). The pUC19 plasmid was used as the negative control in the array.

[1] = target: factor VIIa-tissue factor complex (Homo sapiens, UniProt P08709); test: Inhibition assay for factor VIIa-tissue factor amidolytic activity (S-2288); assay type: biochemical; design: purchased Novo Nordisk (Copenhagen, Denmark) for factor VIIa (provided as a gift); soluble tissue factor prepared in house by a published method (Petersen et al., 1996); details: relative to wild-type KD1
Sequence of factor VIIa-tissue factor complex (P08709 213-466 limits assumed): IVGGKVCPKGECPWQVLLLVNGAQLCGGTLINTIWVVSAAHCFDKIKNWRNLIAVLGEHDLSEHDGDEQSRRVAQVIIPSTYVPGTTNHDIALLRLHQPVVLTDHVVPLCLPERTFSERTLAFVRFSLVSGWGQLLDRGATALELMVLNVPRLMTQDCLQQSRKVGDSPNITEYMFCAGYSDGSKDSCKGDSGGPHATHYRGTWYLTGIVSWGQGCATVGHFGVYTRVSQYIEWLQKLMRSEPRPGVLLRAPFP
Sequence of factor VIIa-tissue factor complex (P08709 61-212 partner limits assumed): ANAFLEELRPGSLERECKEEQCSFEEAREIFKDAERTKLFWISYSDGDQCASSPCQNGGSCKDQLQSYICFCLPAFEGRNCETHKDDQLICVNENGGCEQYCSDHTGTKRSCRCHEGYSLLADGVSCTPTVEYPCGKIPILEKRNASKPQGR
Sequence of factor VIIa-tissue factor complex (P13726 33-251 partner limits assumed): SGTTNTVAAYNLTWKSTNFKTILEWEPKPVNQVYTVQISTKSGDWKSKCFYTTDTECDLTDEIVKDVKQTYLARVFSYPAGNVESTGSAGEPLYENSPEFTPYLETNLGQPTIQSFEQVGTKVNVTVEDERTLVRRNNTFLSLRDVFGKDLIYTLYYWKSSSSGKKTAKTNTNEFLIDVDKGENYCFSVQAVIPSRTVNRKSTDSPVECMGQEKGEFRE
Procedure: Recombinant soluble human tissue factor (100 nM) and factor VIIa (50 nM) were incubated in a TBS-BSA buffer/5 mM CaCl2 for 15 minutes at 37° C. Following this incubation, aliquots (100 μl) were dispensed into a 96-well microtitration plate and treated with serial dilutions of inhibitors dissolved in TBS buffer. After 15 minutes of incubation, 30 μl of S-2288 (final concentration, 1 mM) was added to each well and the absorbance at 405 nm was determined as described earlier.
The apparent inhibition constant, Ki′ was determined using the non-linear regression data analysis program Ultrafitfv3.0 (Biosoft). Trypsin and plasmin inhibitory data were analyzed according to the following equation for a tight-binding inhibitor: vi=v0[√(Ki′+[I]0+[E]0)^2−4[I]0[E]0−(Ki′+[I]0−[E]0)]/2[E]0 where vi and v0 are the inhibited and uninhibited rates, respectively, and [I]0 and [E]0 are the total concentrations of inhibitor and enzyme, respectively. Factor VIIa-tissue factor inhibition data, where Ki>>[E]0, were analyzed according to the following equation: vi=v0/(1+[I]0/Ki′) Ki values were obtained by correcting for the effect of substrate according to Bieth et al. (Biochem. Med., 32:387-397, 1984), where Ki=Ki′/(1+[S]/Km) Results Molecular Modeling and Selection of Mutations

B1: R24K KD1: KD1 with lysine in place of arginine at position 24 (SEQ ID NO:3) (protein)
chain: DAAQEPTGNNAEICLLPLDYGPCKALLLRYYYDRYTQSCRQFLYGGCEGNANNFYTWEACDDACWRIEKVPKV
modifications: mutated active domain
Fold change BAG3, Group 2 vs. Group 1 (HT-1080 cells; Group 2 vs. Group 1): 0.60 fold
Fold change BAK1, Group 2 vs. Group 1 (HT-1080 cells; Group 2 vs. Group 1): 1.78 fold
Fold change BAX, Group 2 vs. Group 1 (HT-1080 cells; Group 2 vs. Group 1): 3.09 fold
Fold change BCL2, Group 2 vs. Group 1 (HT-1080 cells; Group 2 vs. Group 1): 0.65 fold
Fold change BCL2A1, Group 2 vs. Group 1 (HT-1080 cells; Group 2 vs. Group 1): 2.02 fold
Fold change BCLAF1, Group 2 vs. Group 1 (HT-1080 cells; Group 2 vs. Group 1): 0.74 fold
Fold change BFAR, Group 2 vs. Group 1 (HT-1080 cells; Group 2 vs. Group 1): 0.34 fold
Fold change BNIP3, Group 2 vs. Group 1 (HT-1080 cells; Group 2 vs. Group 1): 1.71 fold
Fold change CARD6, Group 2 vs. Group 1 (HT-1080 cells; Group 2 vs. Group 1): 2.31 fold
Fold change CARD11, Group 2 vs. Group 1 (HT-1080 cells; Group 2 vs. Group 1): 1.54 fold
Fold change CASP4, Group 2 vs. Group 1 (HT-1080 cells; Group 2 vs. Group 1): 1.18 fold
Fold change CASP9, Group 2 vs. Group 1 (HT-1080 cells; Group 2 vs. Group 1): 1.50 fold
Fold change CD40, Group 2 vs. Group 1 (HT-1080 cells; Group 2 vs. Group 1): 4.74 fold
Fold change CIDEB, Group 2 vs. Group 1 (HT-1080 cells; Group 2 vs. Group 1): 2.25 fold
Fold change GADD45A, Group 2 vs. Group 1 (HT-1080 cells; Group 2 vs. Group 1): 1.88 fold
Fold change LTA, Group 2 vs. Group 1 (HT-1080 cells; Group 2 vs. Group 1): 75.31 fold
Fold change LTBR, Group 2 vs. Group 1 (HT-1080 cells; Group 2 vs. Group 1): 1.38 fold
Fold change MCL1, Group 2 vs. Group 1 (HT-1080 cells; Group 2 vs. Group 1): 1.46 fold
Fold change TNFRSF1B, Group 2 vs. Group 1 (HT-1080 cells; Group 2 vs. Group 1): 1.59 fold
Fold change TNFRSF10B, Group 2 vs. Group 1 (HT-1080 cells; Group 2 vs. Group 1): 1.68 fold
Fold change TNFRSF25, Group 2 vs. Group 1 (HT-1080 cells; Group 2 vs. Group 1): 1.27 fold
Fold change TRADD, Group 2 vs. Group 1 (HT-1080 cells; Group 2 vs. Group 1): 1.92 fold
Fold change TRAF4, Group 2 vs. Group 1 (HT-1080 cells; Group 2 vs. Group 1): 3.79 fold
Fold change BAG3, Group 3 vs. Group 1 (HT-1080 cells; Group 3 vs. Group 1): 0.44 fold
Fold change BAK1, Group 3 vs. Group 1 (HT-1080 cells; Group 3 vs. Group 1): 1.74 fold
Fold change BAX, Group 3 vs. Group 1 (HT-1080 cells; Group 3 vs. Group 1): 3.97 fold
Fold change BCL2, Group 3 vs. Group 1 (HT-1080 cells; Group 3 vs. Group 1): 0.12 fold
Fold change BCL2A1, Group 3 vs. Group 1 (HT-1080 cells; Group 3 vs. Group 1): 2.09 fold
Fold change BCL2L13, Group 3 vs. Group 1 (HT-1080 cells; Group 3 vs. Group 1): 1.61 fold
Fold change BCLAF1, Group 3 vs. Group 1 (HT-1080 cells; Group 3 vs. Group 1): 0.41 fold
Fold change BFAR, Group 3 vs. Group 1 (HT-1080 cells; Group 3 vs. Group 1): 0.25 fold
Fold change BNIP3, Group 3 vs. Group 1 (HT-1080 cells; Group 3 vs. Group 1): 1.69 fold
Fold change CARD6, Group 3 vs. Group 1 (HT-1080 cells; Group 3 vs. Group 1): 3.62 fold
Fold change CARD11, Group 3 vs. Group 1 (HT-1080 cells; Group 3 vs. Group 1): 4.36 fold
Fold change CASP4, Group 3 vs. Group 1 (HT-1080 cells; Group 3 vs. Group 1): 2.28 fold
Fold change CASP9, Group 3 vs. Group 1 (HT-1080 cells; Group 3 vs. Group 1): 3.22 fold
Fold change CD40, Group 3 vs. Group 1 (HT-1080 cells; Group 3 vs. Group 1): 63.39 fold
Fold change CIDEB, Group 3 vs. Group 1 (HT-1080 cells; Group 3 vs. Group 1): 1.77 fold
Fold change GADD45A, Group 3 vs. Group 1 (HT-1080 cells; Group 3 vs. Group 1): 5.56 fold
Fold change LTA, Group 3 vs. Group 1 (HT-1080 cells; Group 3 vs. Group 1): 15.94 fold
Fold change LTBR, Group 3 vs. Group 1 (HT-1080 cells; Group 3 vs. Group 1): 1.88 fold
Fold change MCL1, Group 3 vs. Group 1 (HT-1080 cells; Group 3 vs. Group 1): 2.20 fold
Fold change TNFRSF1B, Group 3 vs. Group 1 (HT-1080 cells; Group 3 vs. Group 1): 2.10 fold
Fold change TNFRSF10B, Group 3 vs. Group 1 (HT-1080 cells; Group 3 vs. Group 1): 1.71 fold
Fold change TNFRSF25, Group 3 vs. Group 1 (HT-1080 cells; Group 3 vs. Group 1): 2.08 fold
Fold change TRADD, Group 3 vs. Group 1 (HT-1080 cells; Group 3 vs. Group 1): 2.07 fold
Fold change TRAF4, Group 3 vs. Group 1 (HT-1080 cells; Group 3 vs. Group 1): 4.05 fold
reduction in inhibitory activity towards factor VIIa / VIIa-TF [1]: approximately five-fold

— patent publication US7910550B2, “Human kunitz-type inhibitor with enhanced antifibrinolytic activity” (STC.UNM, priority 2004, dated 2011)
